In assay [1] the target is T1, recombinant human pro-sPLA2-GIB (pro form of group IB pancreatic phospholipase A2) (human, UniProt P04054 16-148).
T1 construct: also called pro-sPLA2-IB; proPLA2-GIB
The assay is described as follows: competition ELISA on coated pro-sPLA2-IB; competitor biotinylated 8G11. How it is done:
(§1) Epitope mapping of the #14G9, #1C11, #8G11 and #7A10 mAbs was evaluated by competition ELISA. Biotinylated mAbs #14G9, #1C11, #8G11 or #7A10 were added to sPLA2-GIB or pro-sPLA2-GIB coated plates in the presence of an excess of un-biotinylated mAb. Bound mAbs were then detected with Streptavidin-HRP conjugate. Results were expressed as percentage of signal, after subtraction of the autologous competition, with 0% representing maximum competition and 100% no competition (Table 4).
Background: ELISA stands for enzyme-linked immunosorbent assay.

Assay [2] addresses T1, recombinant human pro-sPLA2-GIB (pro …). The assay is described as follows: indirect ELISA, coated antigen. How it is done:
(§2) Microplate wells were typically coated with 100 ng of recombinant human sPLA2-GIB or pro-sPLA2-GIB in PBS pH 7.5, overnight at 4° C. Sample wells were washed three times with PBS containing 0.05% Tween 20. After final washing, sample wells were treated with blocking solution containing 1% bovine serum albumin (BSA) in PBS buffer for 60 min at room temperature. Following washing with PBS containing 0.05% Tween 20, increasing amounts (10 ng/mL up to 3 μg/mL) of mAb directed against human pro-sPLA2-GIB or sPLA2-GIB were added to antigen-coated wells. and incubated for 120 min at room temperature. Following washing with PBS containing 0.05% Tween 20, the binding of mAb was detected with an HRP-conjugated goat anti-mouse IgG or IgA polyclonal antibody reagent and developed using colorimetric substrate. The dependency of the signals on the […] was analyzed with a 4-parameter fit analysis using Prism™ software (Graph Pad) and reported as EC50.

The target of assay [3] is T2, recombinant human sPLA2-GIB (mature secreted form of group IB pancreatic phospholipase A2) (human, UniProt P04054 23-148).
T2 construct: Genbank NP_000919 printed for human PLA2-GIB; also called sPLA2-IB; mature sPLA2-GIB
The assay can be described thus: indirect ELISA, coated antigen. How it is done: as §2

For assay [4], the target named is T2, recombinant human sPLA2-GIB (mature …). The assay is described as follows: competition ELISA on coated sPLA2-IB; competitor biotinylated 14G9. How it is done: as §1
The target is the same in assay [5]. The assay can be described thus: cell-based or functional assay.
Assay [6] has the same target. The assay can be described thus: competition ELISA on coated sPLA2-IB; competitor biotinylated 1C11. How it is done: as §1
Assay [7] deals with T1, recombinant human pro-sPLA2-GIB (pro …). The assay is described as follows: competitive ELISA: mAb premixed with serial dilutions of soluble antigen, free mAb read on antigen-coated plate. How it is done:
(§3) Binding affinities of the antibodies to pro-sPLA2-GIB and sPLA2-GIB were measured by plate-based competition immunoassay. For the competition ELISA, briefly, constant amounts of antibody at different levels were premixed with serial dilutions of antigen protein, human sPLA2-GIB or pro-sPLA2-GIB, ranging from 0 to 10 μg/ml, and incubated for two hours at room temperature to reach pseudo-binding equilibrium between the antibody and antigen. These solutions were then transferred to 96-well sPLA2-GIB or pro-sPLA2-GIB pre-coated plates to allow the free-antibody in the mixtures to bind to plate-coated sPLA2-GIB or pro-sPLA2-GIB. The plates were typically coated with 30 to 100 ng of human sPLA2-GIB or pro-sPLA2-GIB protein in PBS solution overnight at 4° C. followed by BSA nonspecific blocking. After washing off excess antibody in solution, plate-bound antibodies were detected with an HRP-conjugated goat anti-mouse IgG or IgA polyclonal antibody reagent and developed using colorimetric substrate. The dependency of the signals on the concentrations of antigen in solution was analyzed with a 4-parameter fit analysis using Prism™ software (Graph Pad) and reported as IC50.
(§4) The respective binding affinities of the antibodies to human pro-sPLA2-GIB and human sPLA2-GIB were measured by plate-based competition immunoassay. Briefly, constant amounts of antibody at different levels were premixed with serial dilutions of antigen proteins to reach pseudo-binding equilibrium between the antibody and antigen. These solutions were then transferred to antigen pre-coated plates to allow the free-antibody in the mixtures to bind to plate-coated sPLA2-GIB or pro-sPLA2-GIB. Plate-bound antibodies were detected with an HRP-conjugated polyclonal antibody. Data were fitted with a 4PL logistic non-linear regression model and the relative IC50 values were estimated from the model (Table 2).

Assay [8] addresses T2, recombinant human sPLA2-GIB (mature …). The assay is described as above. How it is done:
as §3, §4

In assay [9] the target is T1, recombinant human pro-sPLA2-GIB (pro …). The assay can be described thus: SPR (BIAcore 2000), mAb captured on anti-mouse IgG, antigen in solution. How it is done: (§5) The affinity constant (KD) of the pro-sPLA2-GIB and sPLA2-GIB binding to the selected antibodies described above were determined by surface kinetics on a real-time biosensor surface plasmon resonance assay (BIAcore™). More specifically, the affinity of the antibodies for human pro-sPLA2-GIB and sPLA2-GIB was measured using a BIAcore® 2000. The antibody was captured on an anti-mouse IgG surface and exposed to various concentrations of recombinant pro-sPLA2-GIB and sPLA2-GIB protein. Kinetic analysis using BlAevaluation™ software was performed to obtain the association and dissociation rate constants.
as §5, with “constants (Table 3).” for “constants.”
(In general: Surface plasmon resonance follows binding to a sensor surface in real time, without labels.)

Assay [10] deals with T2, recombinant human sPLA2-GIB (mature …). The assay is described as above. How it is done: as §5
as §5, with “constants (Table 3).” for “constants.”

Assay [11] has as its target T1, recombinant human pro-sPLA2-GIB (pro …). The assay can be described thus: competition ELISA on coated pro-sPLA2-IB; competitor biotinylated 1C11. How it is done: as §1
Assay [12] shares this target. The assay is described as follows: competition ELISA on coated pro-sPLA2-IB; competitor biotinylated 7A10. How it is done:
as §1

The target in assay [13] is T2, recombinant human sPLA2-GIB (mature …). The assay can be described thus: competition ELISA on coated sPLA2-IB; competitor biotinylated 7A10. How it is done: as §1

T1 sequence (P04054 16-148): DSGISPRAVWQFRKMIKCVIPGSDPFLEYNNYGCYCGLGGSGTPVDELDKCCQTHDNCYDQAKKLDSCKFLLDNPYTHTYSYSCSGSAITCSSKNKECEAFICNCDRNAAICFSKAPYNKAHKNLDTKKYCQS
T2 sequence (P04054 23-148): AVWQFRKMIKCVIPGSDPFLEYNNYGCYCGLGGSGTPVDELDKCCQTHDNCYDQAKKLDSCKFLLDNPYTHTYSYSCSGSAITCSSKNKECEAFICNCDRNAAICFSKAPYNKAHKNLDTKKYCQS

B1: #7A10 (antibody, IgG1, V domains shown)
VH: QVQLKESGPGLVAPSQSLSITCTVSGFSLTSYGVSWVRQPPGKGLEWLGVIWGDGSTNYHSALISRLSISKDNSKSQVFLKLNSLQTDDTATYYCAKEGGLRRGVYFDYWGQGTTLTVSS
VL: DIQMNQSPSSLSASLGDTITITCRASQGISIWLDWYQQKPGNIPKLLIYKASNLHTGVPPRFSGSGSGTDFTLTISSLQPEDIATYYCLQSQSYPLTFGAGTKLELKR
notes: also called monoclonal antibody 7A10; #7A10 mAb
As a reminder, the EC50 is the concentration that produces a half-maximal response. As a reminder, the IC50 is the concentration needed to halve the response being measured. The Kd is the constant that tells how readily two partners part at equilibrium. Broadly, the koff is the first-order rate constant of dissociation. A word on the kon: it is the rate constant with which the complex forms. As for B1, the percentage of signal came to 93% in assay [1], 58% in assay [4], 19% in assay [6] and 18% in assay [11]. Besides, the EC50 was 13 nM in assay [2] and 77 nM in [3]. Moreover, the “Enzymatic Activity Inhibition (% of Control)” value in assay [5] stood at 51%. In addition, the IC50 was 4.3 nM in [7] and 5.3 nM in [8]. Further, the Kd is 3.79 nM in assay [9] and 3.83 nM in [10]. The koff in assay [9] is 0.000407 s⁻¹; in assay [10] it was 0.000444 s⁻¹. Also, the kon worked out at 110000 M⁻¹ s⁻¹ in assay [9] and 118000 M⁻¹ s⁻¹ in assay [10]. The t1/2 in assay [9] is 41 min; in [10], 37.5 min.

B2: #22C6 (antibody, IgG2a, V domains shown)
VH: EVQLQESGPGLVKPSQTVSLNCTVTGHSITDDNYYWSWIRLVSGSKLEWIGYITSAGNTDNNPSLKSRISITRDISKNQFFLHLSSVTAEDTATYYCARDSTDGDFYFEKWGQGTTLTVSS
VL: EIVLTQSPTTMAASPGEKITITCSVSSSISPNFLHWYQQKPGFSPKLLIFRTSNLASGVPTRFSGSGSGTSYSLTIGTMEAEDVATYYCHQGNSLPLTFGAGTKLELKR
B2: the percentage of signal in assay [1] is 39%; in assay [4], 2%; in [6], 56%; in assay [12], 141%; in assay [13], 53%; in assay [11], 18%. For the same molecule, the concentration giving a half-maximal response (EC50) was found to be 117 nM in assay [2] and 22 nM in assay [3]. Moreover, the “Enzymatic Activity Inhibition (% of Control)” value in [5] was 3%.

B3: #24B2 (antibody, IgG2a, V domains shown)
VH: DVQVQESGPGLVKPSQTVSLNCTVTGHSITDDNYYWSWIRLVSGSKLEWIGYITSSGSTDINPSLKSRISITRDISKNQFFLHLNSVTAEDTATYYCARDSTDGDFYFEKWGQGTTLTVSS
VL: DIVLTQSPASLAVSLGQRATISCRASESVDNYGISFMHWYQQKPGQPPKLLIYRASNLESGIPARFSGSGSRTDFTLTINPVETDDVATYYCQQSSRDLFTFGGGTKLEIKR
Turning to B3, the percentage of signal was 64% in assay [1]; 17% in [4]; 61% in [6]; 135% in assay [12]; 65% in [13]; 23% in [11]. The EC50 in assay [2] was found to be 81 nM; in assay [3] it was 15 nM. The “Enzymatic Activity Inhibition (% of Control)” value in assay [5] turned out to be 5%.

B4: #1C11 (antibody, IgG1, V domains shown)
VH: EVKLQESGPELVKPGASVKISCKVSGYAFSSFWMNWVKQRPGKGLEWIGRIYPGDGDINYNGKFKGKATLTADKSSSTAYMQLSSLTSEDSAVYFCVRGWAWFPYWGQGTLVTVSA
VL: EIVLTQSPAITSASLGQRVTISCSATSSVSYVHWYQQKSGTSPKPWIYEISRLASGVPARFSGSGSGTSYSLTISTMEAEDAAIYYCQSWNFPLLSFGAGTKLELKR
notes: also called monoclonal antibody 1C11; #1C11 mAb
For the molecule B4, the percentage of signal worked out at 496% in assay [1], 1440% in [4], 314% in assay [12] and 1150% in assay [13]. For the same molecule, the concentration for a half-maximal effect (EC50) in [2] is 4 nM; in assay [3], 3 nM. The “Enzymatic Activity Inhibition (% of Control)” value in assay [5] is 110%. Further, the IC50 in [7] is 2.4 nM; in assay [8] it was 3.8 nM. Further, the Kd in [9] came out at 0.151 nM; in [10], 0.0644 nM. For the same molecule, the figures for the koff in assay [9] and in assay [10] were 0.000405 s⁻¹ and 0.000309 s⁻¹, respectively. Further, the kon in assay [9] worked out at 2.7e+06 M⁻¹ s⁻¹; in assay [10], 4.79e+06 M⁻¹ s⁻¹. The t1/2 in assay [9] was determined as 41.2 min; in assay [10], 53.9 min.

For the origin of these results see US20210047431A1 (DIACCURATE, published 2021).
